The series concerns the target T1, hex-ΔN61-NS3 (cc-hex fused NS3) (Human norovirus GI, UniProt Q83883 460-761).
T1 sequence: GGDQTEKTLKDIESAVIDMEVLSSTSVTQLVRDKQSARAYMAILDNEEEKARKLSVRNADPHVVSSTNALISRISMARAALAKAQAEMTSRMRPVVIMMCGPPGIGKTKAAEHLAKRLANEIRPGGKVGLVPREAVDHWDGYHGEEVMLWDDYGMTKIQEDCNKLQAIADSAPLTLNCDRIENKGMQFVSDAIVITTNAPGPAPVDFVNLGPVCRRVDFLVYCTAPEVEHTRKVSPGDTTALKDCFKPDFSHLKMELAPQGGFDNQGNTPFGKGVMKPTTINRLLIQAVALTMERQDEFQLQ
As to the kind of experiment: EMSA; 20 µM protein, 0.2 nM RNA, 5 mM Mg2+; EMSA: 25 mM HEPES pH 8.0, 30 mM NaCl, 5 mM MgCl2, 2 mM DTT, RNasin, 5% glycerol, 37 °C 1 h, 6% native PAGE; tweezers buffer not in material. The settings on record: protein: recombinant; tags: N-terminal 32-residue cc-hex replaces residues 1-61; chain copies: 6; label: 5' HEX; single strand, 42 nt. For orientation: Mobility shift assays separate free from complexed probe on a gel.

Take CAUUAUCGGAUAGUGGAACCUAGCUUCGACUAUCGGAUAAUC (ssRNA) [RNA1]: the binding result was “binds”.

These data come from publication PMC13683342, “Integrative structure of norovirus NS3 suggests a role in RNA transport”.
